Results taken from US20060110777A1 (Genentech, published 2006).
“And” between values parts separate entries of the source, which are not always exact repeats. Equal values may be shown once. Positions of bridges follow the written chain, without caps; N, C: chain ends. No end group written: not given here.

B1: bhpBR3 (peptide)
peptide: CHWDLLVRHWVC-NH2
modifications: disulfide 1-12 (inferred)
notes: BR3 residues 26-31 (DLLVRH) embedded in the disulfide-bonded beta-hairpin (bhp) scaffold; also called the 12-residue peptide; turn peptide bhpBR3
B2: miniBR3 (peptide)
peptide: TPCVPAECFDLLVRHCVACGLLRTPR-NH2
modifications: disulfide 3-16, 8-19
notes: Synthetic peptide with the 1:3, 2:4 disulfide-bonding pattern; also called 26-residue miniBR3 peptide; the larger core domain

Molecular target: T1, BAFF (UniProt Q9Y275 134-285, limits assumed)
T1 construct: Coated on ELISA plates at 2 ug/ml; The construct is not described; also called BLyS; TALL-1
Assay: competitive displacement ELISA, BAFF coated, biotinylated miniBR3 as tracer
Method: FIGS. 16A-16B depict binding of BR3 variants to BAFF. (A) Competitive displacement of biotinylated miniBR3 measured by ELISA (see methods). Data are shown for BR3 extracellular domain (filled triangles), miniBR3 (open squares), and bhpBR3 (filled circles). IC₅₀ values from the fitted curves are 70 nM, 65 nM, and 15 μM, respectively. (B) HeLa cells expressing a chimeric receptor composed of the extracellular ligand-binding domain of BR3 fused to the death domain of DR4 were seeded 16 hr before treatment. BAFF (2 nM) was added to cells alone or after being preincubated with miniBR3 (3 μM), bhpBR3 (100 μM) or a control hairpin peptide with an unrelated turn sequence in the same bhp scaffold (bhpC, 100 μM) for 30 min at room temperature. Apoptosis was assessed 24 hr later. […]
Nunc Maxisorp 96-well plates were coated overnight at 4° C. with 100 μl of a 2 μg/ml solution of BAFF in carbonate buffer, pH 9.6. […] The reaction was quenched with 100 μl/well 1M H₃PO₄ and the plate read at 490 nm. IC₅₀ values were determined by a four-parameter fit of the competitive displacement ELISA signal. The concentrations of initial stock solutions of bhpBR3 were determined spectrophotometrically as described (Gill and von Hippel, (1989) Anal. Biochem. 182:319-326), while those of miniBR3 and BR3 extracellular domain were determined by quantitative amino acid analysis.

T1 sequence (Q9Y275 134-285 limits assumed): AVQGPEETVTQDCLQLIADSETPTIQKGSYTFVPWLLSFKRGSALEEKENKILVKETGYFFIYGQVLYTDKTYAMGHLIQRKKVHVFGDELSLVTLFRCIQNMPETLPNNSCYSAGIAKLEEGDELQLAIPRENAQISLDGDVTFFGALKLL

Row | Binder | IC50
1 | B1 | 15 µM
2 | B2 | 0.065 µM and ~0.07 µM
